Experiment: soluble on expression in E. coli; label from the status in PepcDB or PDB records

| Sequence | soluble on expression in E. coli |
| --- | --- |
| MNLMNVADKVIKSAFESDEVFQKTLSAVIKEDLNLTAVDFAKKANIPPSTLYKILSGNRDPNIKTLRQIVKTIRDIKESDSGEFIAVIAARSVLDNIVETKKKIGGRLVTIREYSATSMEDAIISAVNAERDGAKALVCAPIVGPTVEKILNIPVTTIAPKNSLIDAIERALKKME | not soluble |
| GPGSMSAAGVTVRRAEREDTQRMYDLIMELAIYERAPECVVVSKAQMEEEGFGERPLWSAFVAELQETNDVKPRVIGMALYYYRYSTWRGRMLYLEDFIVTESHRGIGAGKMLFERVLQQAKEEGCHGMVWQALDWNAPAIEFYKKYDAEIDPGWVNCMLKF | soluble |
| MGSDKIHHHHHHVKDGFDLVDTGDPFDTITPVIPISDRPRSQSVVAGTLNDPYRRQAVADARSLWRKSIPGSRGVVAAYLASQGIQLDEIPANLRFVLDHPYMKKSGGLYHELHRGPCVLGGIFSEAGQLLGVNQIWVDPKPPHGRASIQMDGDHMPAEIVRGSCKGGFLPLVWPEAATALVVARSLEAALRAYASRPSGLEDAAYWAVVDLKVMSGKMQRQKGVRYSGLPDLSDDTSFVAPHWVKRLVFLQEDDRTGTRQKLESGLKRSMHVRPGLRASIVRIGSAAKGGV | not soluble |
| MGSDKIHHHHHHMDDQLNALRDLAIPFPITASFRQQARAYASQYFTQDTHERVYLNTLAVLVANAYFRLLNFQTNLTKAERWNAACRVWSEANEIELVGLGNLECRVITAGQQTIILPPETWADRIGYLFVEITSSEKVATLIGFLPAFDAETSGEEVAISTTGYAYADLKSMDEAMDYLTQQEASARSKTGEIDNLTRDFAAKKITYLRNWLNNVYDSDWEPAMRELSAATCKKKIQLVGQVFEMQLSVSQSNGAITVTVIVRLESGFLPIGIQVSVPDESEIYTETVSTPADLIRIPLEFSPGEEFWVELRWGETFTREYFIA | not soluble |
| MNQCKVMNDGYLEKRSNGLLQLWKKKRCVLSDEGLRLYGCKGDSGKEMRFEQMTTLDCVEYKRGLVYFTIVMNDGKEVDFRCQQEGTAWNAEIALALVRFKNRVAVQTGRNRHLSHLGSCGEGDVEL | not soluble |
| MREIIFLVEEAEEGGFVARALGEAIFTEGETWEELKEMVRDAVRCHFGEEAPPIIRLHFVREEVLTP | soluble |
| MIVNKPQFDENELGEGTAVQVTSGNPFGRPNYSNNKHDWNAVVVEFSPLMISVAGYNKEEHDRVETMNITIDSIVKEHVTLKKLVVELPKIQCEAGPEND | not soluble |
| MSTLAQLLDTKRTALAAELAGFIDRSVSQSSGISGVALKGAVAAAKKVRPDIVTKGAERLLPEVVEVLDPYWASFEASDSTHFGEFLEQHKSEVSDKILEVADRNAEKVDMPALKKAYGSLRGKAASFIEPNLPGLGQIMQNYMK | not soluble |
| MEDYANISKGKEKFFPHCFYGRCCARRMLCDANVFPYALPVEANSLKEQAPCLKDEECDLFPDFLGTCVHHQNVTNILENRRFKYFPTNNNVKPKGYGMCCYSKKSSICSTGGTPFEVELSDGPCSNHIDCNPDELPFKWNAYCSQNAKSNMCCRDTLVDSLCPDGFTPYRTQQKCEGYHPLSKSSGKCPKSNGMCHRGHCCPRLTIDEARKATPYHLNYVTDTQCDPTEPLDFVYRWAFCDEIEEKIVVMGDRNADGTELNWQQSRCTINR | not soluble |
| SLYQVVLGKVSTLSAGQLPDALIAQAPQGVRRASWLAGRVLLSRALSPLPEMVYGEQGKPAFSAGAPLWFNLSHSGDTIALLLSDEGEVGCDIEVIRPRDNWRSLANAVFSLGEHAEMEAERPEQQLAAFWRIWTRKEAIVKQRGGSAWQIVSVDSTLPSALSVSQCQLDTLSLAVCTPTPFTLTPQTITKAL | not soluble |
| MNTPHPSAPVLVAVANPTIHPEALHIVAATGRECIDTTDPREISRHAHRVAAMLVDATTAPHMASLPPNTRVMYLEPEPGPIDYEKAMKSGAELAVIVPAQSPELLKALGRRDVAPRAGKYPVIAVIGAAGGAGTSTLCAALAADYREALLIDTEHFSGGIDLLLGKEDDPGIRWDDVPDSGEKVPASELLASLPCVDPNVRILAATRDSVTHVAEQQLRGVVESVRGTCPIIIDVQRHHVLFESCVDLADLVVLLVPAEIRSVAAAAQLVPWLRRRKVDVVGVLRERAWASVDREEVARVTGADIVATVPTVKGLPREVELGGMATIPRALRRPLAQLRSHIDG | not soluble |
| MLSVAGHRFASLATTPVLRMGLARCFSSVTGPFQCPPLPYVKNALEPHMSAETLTYHHDKHHQTYVDTLNSIAAENSTIASKTLEQIIKTETGKPFNQAAQVYNHTFFFNNLAPNGGGEPTGKIAELITRDFGSFEKFKEDFSAAAVGHFGSGWVWLIADDGKLKIVQGHDAGNPIRESKTPLMNIDVWEHAYYIDYRNARAQYVKNYWNLVNWDFVNDNVAKAGI | soluble |
| MDFPTISRSPSGPPAMDLEGPRDILVPSEDLTPDSQWDPMPGGPGSLSRMELDESSLQELVQQFEALPGDLVGPSPGGAPCPLHIATGHGLASQEIADAHGLLSAEAGRDDLLGLLHCEECPPSQTGPEEPLEPAPRLLQPPEDPDEDSDSPEWVEGASAEQEGSRSSSSSPEPWLETVPLVTPEEPPAGAQSPETLASYPAPQEVPGPCDHEDLLDGVIFGARYLGSTQLVSERNPPTSTRMAQAREAMDRVKAPDGETQPMTEVDLFVSTKRIKVLTADSQEAMMDHALHTISYTADIGCVLVLMARRRLARRPAPQDHGRRLYKMLCHVFYAEDAQLIAQAIGQAFAAAYSQFLRESGIDPSQVGVHPSPGACHLHNGDLDHFSNSDNCREVHLEKRRGEGLGVALVESGWGSLLPTAVIANLLHGGPAERSGALSIGDRLTAINGTSLVGLPLAACQAAVRETKSQTSVTLSIVHCPPVTTAIIHRPHAREQLGFCVEDGIICSLLRGGIAERGGIRVGHRIIEINGQSVVATPHARIIELLTEAYGEVHIKTMPAATYRLLTGQEQPVYL | soluble |
| GFNYSITGNIATFKNKITELPDNVRSVYGGNGMLDDIIGRPRNSIYGYVADGIFKTQEEVDNSPQQAGKGLGRIRYKDLDGDGRITQDYDRTWIGVSDPDFTYGLNLQASYKNVDLALFFQGVHGGDVWDSWIEYSDFWNIQDVNNTNHLKGVFNAWSPQNPDSNIPALSTRNTNDEKRTSTYFLKDGSYLKLRTIELGYTFPESMVKKAMISRLRAYVSANNVFTIKKWWDSNRFSGPDPEIRDFGYVIPFTATVGVNITF | not soluble |
| MSLDIHCHILPEIDDGPSSLEESLVMAREAVKEGITKIIATPHHLHPSYNNKAAVVKEKVRKLNEAIQKENIPLEILPGQEVRISGDVMDGLVSGDILTLADQGKYLFVEFSSNHVSRYADKLFFQLLSQDIIPIIVHPERNHEFLKNPGLLYDLVNGGALTQITTSSLTGHLGKKIKKFTEQIIEADLTHFLASDAHNVTERTFRIREAFALVEKNYGSSKAYEFQENAELLVENQHVMGPPPQPIVKKKLLGIFEGHHHHHH | soluble |
| MGSDKIHHHHHHMGGLQNVRSAALIGHNGSGKSLLLAQILYKSGLIDKADTKYVDYDPVEEEKGASFSSHVASLEWKGKKVYLIDTPGFSDFISEVINGIFVSENIISVVNAVAGVEIQTERTWNMADEMKKPIIVFVNQMDKERANFENVVAELKERFSRKIVPVVVPIGAAENFEGVVDLLKKKAYRYDGDKVQEEDMPESFNDMRSEILEDIVEQDEELMMRYLDGEDIGYDELMRVLKEGYKKGEIVPVLSGSALKGIGLDLLLDYLGDIGVSPEEAPSYKALLEDGTEIEVKFSEEEPFCAYIFKSVVDQFVGRITFAKVIAGVLRPGDTVVNVQKDVTEKVGHVYVPILKQQKEVESAGPGEIVVLLKLKEGAVGETLAHRDRRVKIVPPAFPEPMFSRSVHPKSKSDIDKISSGLSRLSDSDPTFVWEYDPETGETVVSGLGAMHLDVMIERLKKIFGVDVEVGKPKIAYRETITTTAVAEHKHKKQTGGHGQYGHVKIQLEPLPRGQGYEFVDKIVGGVIPRNFIPSVDKGIREAMKKGVLAGYPVTDVRVILFDGSYHEVDSSDISFQIAAIQAFKKGMEAAKPVILEPIMEVEVFVPEENAGDVMGEISSRRGRPLGMEPSGKGMVKVKAEVPLAEMLDFSSKLSSITSGRGYFTMRFQRYEIVPPNIQEKIIEERRREMQEQEK | not soluble |

— the DeepSol protein solubility set
